Assay results reported in publication doi:10.1101/2022.02.28.482149 (bioRxiv, 2022).

Target: the molecule itself
Test: crystal structure

B1: MaFRSA (Methanomethylophilus alvus pyrrolysyl-tRNA synthetase, MaPylRS N166A:V168A) (enzyme)
chain: MTVKYTDAQIQRLREYGNGTYEQKVFEDLASRDAAFSKEMSVASTDNEKKIKGMIANPSRHGLTQLMNDIADALVAEGFIEVRTPIFISKDALARMTITEDKPLFKQVFWIDEKRALRPMLAPNLYSVMRDLRDHTDGPVKIFEMGSCFRKESHSGMHLEEFTMLALADMGPRGDATEVLKNYISVVMKAAGLPDYDLVQEESDVYKETIDVEINGQEVCSAAVGPHYLDAAHDVHEPWSGAGFGLERLLTIREKYSTVKKGGASISYLNGAKIN
binding result: binds
